Measurements taken from patent US20140329275A1, “BIOCATALYSIS CELLS AND METHODS” (REGENTS OF THE UNIVERSITY OF MINNESOTA, priority 2011, published 2014).

Substrate: CC(C)CC=O
Test: Enzymatic assay of PadA
Assay type: biochemical, E. coli
Conditions: other: 0.5 mM NAD+, pH 8.0, 25 nM PadA
Method: Protein concentration was measured by UV absorbance at 280 nm. […] Enzymatic reactions were initiated by adding 25 nM PadA. The reactions were monitored by measuring the UV absorbance at 340 nm (extinction coefficient, 6.22 mM^−1 cm^−1) as a consequence of NADH generation.

B1: PadA (Escherichia coli K-12) (protein)
chain: MTEPHVAVLSQVQQFLDRQHGLYIDGRPGPAQSEKRLAIFDPATGQEIASTADANEADVDNAVMSAWRAFVSRRWAGRLPAERERILLRFADLVEQHSEELAQLETLEQGKSIAISRAFEVGCTLNWMRYTAGLTTKIAGKTLDLSIPLPQGARYQAWTRKEPVGVVAGIVPWNFPLMIGMWKVMPALAAGCSIVIKPSETTPLTMLRVAELASEAGIPDGVFNVVTGSGAVCGAALTSHPHVAKISFTGSTATGKGIARTAADHLTRVTLELGGKNPAIVLKDADPQWVIEGLMTGSFLNQGQVCAASSRIYIEAPLFDTLVSGFEQAVKSLQVGPGMSPVAQINPLVSRAHCDKVCSFLDDAQAQQAELIRGSNGPAGEGYYVAPTLVVNPDAKLRLTREEVFGPVVNLVRVADGEEALQLANDTEYGLTASVWTQNLSQALEYSDRLQAGTVWVNSHTLIDANLPFGGMKQSGTGRDFGPDWLDGWCETKSVCVRY
notes: made in house
Km: 1946 µM | kcat: 18.6 s⁻¹
